{"source": "paper PMC9613477", "assay_in_all_cases": "crystal structure; disulfide cross-linked CA hexamers, hanging- or sitting-drop vapour diffusion, data at 100 K, molecular replacement with PDB 3H47", "key": {"[1]": {"target": "HIV-1(M-group) CA Q50Y hexamer (A14C, E45C, Q50Y, W184A, M185A) (HIV-1 group M)"}, "[2]": {"target": "HIV-1(O-group) CA hexamer (A14C, E45C, W185A, M186A) (HIV-1 group O)"}, "[3]": {"target": "SIVcpz CA hexamer (P14C, E45C, W184A, M185A) (SIVcpzPtt (SIV of central chimpanzees))"}, "[4]": {"target": "SIVmac CA hexamer (P13C, E44C, W182A, M183A) (SIVmac (SIV from macaques))"}}, "data": [{"substance": "HIV-1(M-group) CA Q50Y hexamer (A14C, E45C, Q50Y, W184A, M185A) (natural protein)", "values": [{"measurement": "stoichiometry N", "setting": "[1]", "value": 6}]}, {"substance": "HIV-1(O-group) CA hexamer (A14C, E45C, W185A, M186A) (natural protein)", "values": [{"measurement": "stoichiometry N", "setting": "[2]", "value": 6}]}, {"substance": "SIVcpz CA hexamer (P14C, E45C, W184A, M185A) (natural protein)", "values": [{"measurement": "stoichiometry N", "setting": "[3]", "value": 6}]}, {"substance": "SIVmac CA hexamer (P13C, E44C, W182A, M183A) (natural protein)", "values": [{"measurement": "stoichiometry N", "setting": "[4]", "value": 6}]}]}
